Test results: patent US20170306044A1 (ENGMAB, published 2017)
Several values for one entry are separate records, joined by “and”; a condition that tells them apart may be missing. Identical values can stand only once.

Experiments:
[1] = molecular target: T1, human ROR1 (tyrosine-protein kinase transmembrane receptor ROR1) (human, UniProt Q01973 30-937); test: flow cytometry on PA-1 ovarian cancer cells (MFI against antibody concentration)
T1 construct: whole, on cells; the assays used the protein on cells
T1 sequence (Q01973 30-937): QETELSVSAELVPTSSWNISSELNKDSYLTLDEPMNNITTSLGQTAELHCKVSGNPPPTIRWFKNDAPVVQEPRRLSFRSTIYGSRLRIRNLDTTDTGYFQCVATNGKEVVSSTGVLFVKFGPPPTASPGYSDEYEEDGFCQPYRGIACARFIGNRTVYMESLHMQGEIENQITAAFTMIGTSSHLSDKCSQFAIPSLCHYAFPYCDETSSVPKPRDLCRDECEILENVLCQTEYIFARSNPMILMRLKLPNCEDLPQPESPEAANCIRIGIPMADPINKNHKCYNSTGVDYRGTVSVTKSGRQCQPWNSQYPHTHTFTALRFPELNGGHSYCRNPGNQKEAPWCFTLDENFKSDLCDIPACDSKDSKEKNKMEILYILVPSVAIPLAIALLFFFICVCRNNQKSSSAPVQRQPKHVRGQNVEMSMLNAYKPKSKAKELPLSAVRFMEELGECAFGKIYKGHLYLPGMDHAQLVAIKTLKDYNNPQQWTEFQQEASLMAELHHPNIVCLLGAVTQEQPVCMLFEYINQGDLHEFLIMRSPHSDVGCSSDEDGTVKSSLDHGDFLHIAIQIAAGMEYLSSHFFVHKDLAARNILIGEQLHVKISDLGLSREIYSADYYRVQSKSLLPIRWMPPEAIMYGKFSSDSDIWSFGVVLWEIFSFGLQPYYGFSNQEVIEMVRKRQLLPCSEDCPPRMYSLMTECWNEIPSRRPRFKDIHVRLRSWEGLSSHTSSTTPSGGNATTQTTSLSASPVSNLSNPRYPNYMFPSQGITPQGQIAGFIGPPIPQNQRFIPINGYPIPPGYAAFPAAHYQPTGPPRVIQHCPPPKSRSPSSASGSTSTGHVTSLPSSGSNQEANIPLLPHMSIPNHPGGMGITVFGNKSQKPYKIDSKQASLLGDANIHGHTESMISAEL
Method: (§1) a) The level of expression of ROR1 is measured on human ovarian cancer cell lines by flow cytometry including PA-1, MCAS, EFO-21, COLO-704, SW-626, KURAMOCHI, OVSAHO, SNU-119, COV362, OVCAR-4, COV318, TYK-nu, ON/KATE, CAOV-4, OAW28, CAOV-3, 59M, ONCO-DG-1, OVCAR-3. OVCAR-5, ES-2, COV-504, OV-90, RMUG-S, COV-644, SNU-840, OVISE, OAW42, OVTOKO, OVMANA, COV-434, OV56, SK-OV-3N2780, IGROV-1, and/or TOV-21G. Briefly, cells are harvested, washed, counted for viability, resuspended at 50,000 cells/well of a 96-well round bottom plate and incubated with Alexa488-labeled anti human ROR1 antibody for 30 min at 4° C. All ROR1 and isotype control antibodies are titrated and analyzed in final concentration range between 0.01-100 nM. […] At the end of incubation time, cells are centrifuged (5 min. at 350 x g), washed twice with FACS buffer, resuspended in 100 u.l FACS buffer and analyzed on a CantoII device running FACS Diva software. Expression of ROR1 is then quantitified as the median fluorescence intensity (MFI) and graphs showing the MFI in function of ROR1 antibody concentrations are plotted. EC50 values are then measured using Prism software (GraphPad). […] The calculated EC50s for binding of ROR1 Mab1 to SK-OV-3 are extrapolated values and may be underestimated. […]

[2] = molecular target: T1, human ROR1 (tyrosine-protein kinase …); test: flow cytometry, maximum MFI at 10 µg/mL antibody, PA-1 against SK-OV-3 cells
Method: as §1

[3] = molecular target: T1, human ROR1 (tyrosine-protein kinase …); test: flow cytometry on SK-OV-3 ovarian cancer cells (MFI against antibody concentration); extrapolated value
Method: as §1

EC50 [1]: 0.87 nM and 0.13 µg/mL
maximum MFI on PA-1 cells relative to SK-OV-3 cells [2]: ~3 fold
EC50 [3]: ~4.62 nM and ~0.69 µg/mL
B1: ROR1 Mab1 IgG (anti-ROR1 antibody MAB1) (antibody, V domains shown)
VH: QEQLVESGGRLVTPGGSLTLSCKASGFDFSAYYMSWVRQAPGKGLEWIATIYPSSGKTYYATWVNGRFTISSDNAQNTVDLQMNSLTAADRATYFCARDSYADDGALFNIWGPGTLVTISS
VL: ELVLTQSPSVSAALGSPAKITCTLSSAHKTDTIDWYQQLQGEAPRYLMQVQSDGSYTKRPGVPDRFSGSSSGADRYLIIPSVQADDEADYYCGADYIGGYVFGGGTQLTVTG
notes: also called ROR1 IgG; Mab1 anti-ROR1 antibodies
